# From patent US20090017041A1
# Tests used:
# [1] = target: monomer-enriched preparation of the Aβ1-42 peptide (Example 16); experiment: ELISA, fraction coated at 2.2 µM; assay 3; antibody dilution 1:2 (start 0.5 µg/ml)
# [2] = target: oligomer-enriched preparation of the Aβ1-42 peptide (Example 16); experiment: as above
# [3] = target: monomer-enriched preparation of the Aβ1-42 peptide (Example 16); experiment: ELISA, fraction coated at 2.2 µM; assay 1; antibody dilution 1:32 (start 0.5 µg/ml)
# [4] = target: oligomer-enriched preparation of the Aβ1-42 peptide (Example 16); experiment: as above
# [5] = target: high molecular weight (HMW) proto-fibrillar (PF) oligomer enriched preparation of the Aβ1-42 peptide (Example 15) (human); experiment: ELISA, fraction coated at 2 µM; antibody 1 µg/ml
# Sequence of high molecular weight (HMW) proto-fibrillar (PF) oligomer enriched preparation of the Aβ1-42 peptide (Example 15) (human) (peptide, as listed by the source): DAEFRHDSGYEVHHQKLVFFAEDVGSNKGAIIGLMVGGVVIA
# [6] = target: low molecular weight (LMW) monomeric preparation of the Aβ1-42 peptide (Example 15) (human); experiment: ELISA, fraction coated at 2 µM; antibody 1 µg/ml
# Sequence of low molecular weight (LMW) monomeric preparation of the Aβ1-42 peptide (Example 15) (human) (peptide, as listed by the source): as above
# [7] = target: monomer-enriched preparation of the Aβ1-42 peptide (Example 16); experiment: ELISA, fraction coated at 2.2 µM; assay 3; antibody dilution 1:32 (start 0.5 µg/ml)
# [8] = target: oligomer-enriched preparation of the Aβ1-42 peptide (Example 16); experiment: as above
# [9] = target: monomer-enriched preparation of the Aβ1-42 peptide (Example 16); experiment: ELISA, fraction coated at 2.2 µM; assay 2; antibody dilution 1:1 (start 0.5 µg/ml)
# [10] = target: oligomer-enriched preparation of the Aβ1-42 peptide (Example 16); experiment: as above
# [11] = target: monomer-enriched preparation of the Aβ1-42 peptide (Example 16); experiment: ELISA, fraction coated at 2.2 µM; assay 2; antibody dilution 1:64 (start 0.5 µg/ml)
# [12] = target: oligomer-enriched preparation of the Aβ1-42 peptide (Example 16); experiment: as above
# [13] = target: monomer-enriched preparation of the Aβ1-42 peptide (Example 16); experiment: ELISA, fraction coated at 2.2 µM; antibody dilution 1:1 (start 0.5 µg/ml)
# [14] = target: oligomer-enriched preparation of the Aβ1-42 peptide (Example 16); experiment: as above
# [15] = target: monomer-enriched preparation of the Aβ1-42 peptide (Example 16); experiment: ELISA, fraction coated at 2.2 µM; antibody dilution 1:2 (start 0.5 µg/ml)
# [16] = target: oligomer-enriched preparation of the Aβ1-42 peptide (Example 16); experiment: as above
# [17] = target: monomer-enriched preparation of the Aβ1-42 peptide (Example 16); experiment: ELISA, fraction coated at 2.2 µM; antibody dilution 1:4 (start 0.5 µg/ml)
# [18] = target: oligomer-enriched preparation of the Aβ1-42 peptide (Example 16); experiment: as above
# [19] = target: monomer-enriched preparation of the Aβ1-42 peptide (Example 16); experiment: ELISA, fraction coated at 2.2 µM; assay 3; antibody dilution 1:16 (start 0.5 µg/ml)
# [20] = target: oligomer-enriched preparation of the Aβ1-42 peptide (Example 16); experiment: as above
# [21] = target: oligomer-enriched preparation of the Aβ1-42 peptide (Example 16); experiment: ELISA, fraction coated at 2.2 µM; assay 3; antibody dilution 1:64 (start 0.5 µg/ml)
# [22] = target: monomer-enriched preparation of the Aβ1-42 peptide (Example 16); experiment: ELISA, fraction coated at 2.2 µM; antibody dilution 1:128 (start 0.5 µg/ml)
# [23] = target: oligomer-enriched preparation of the Aβ1-42 peptide (Example 16); experiment: as above
# [24] = target: monomer-enriched preparation of the Aβ1-42 peptide (Example 16); experiment: ELISA, fraction coated at 2.2 µM; assay 2; antibody dilution 1:2 (start 0.5 µg/ml)
# [25] = target: oligomer-enriched preparation of the Aβ1-42 peptide (Example 16); experiment: as above
# [26] = target: high molecular weight (HMW) proto-fibrillar (PF) oligomer enriched preparation of the Aβ1-42 peptide (Example 15) (human); experiment: ELISA, fraction coated at 2 µM; antibody 0.0078 µg/ml
# [27] = target: low molecular weight (LMW) monomeric preparation of the Aβ1-42 peptide (Example 15) (human); experiment: as above
# [28] = target: high molecular weight (HMW) proto-fibrillar (PF) oligomer enriched preparation of the Aβ1-42 peptide (Example 15) (human); experiment: ELISA, fraction coated at 2 µM; antibody 0.0625 µg/ml
# [29] = target: low molecular weight (LMW) monomeric preparation of the Aβ1-42 peptide (Example 15) (human); experiment: as above
# [30] = target: monomer-enriched preparation of the Aβ1-42 peptide (Example 16); experiment: ELISA, fraction coated at 2.2 µM; assay 1; antibody dilution 1:128 (start 0.5 µg/ml)
# [31] = target: oligomer-enriched preparation of the Aβ1-42 peptide (Example 16); experiment: as above
# [32] = target: monomer-enriched preparation of the Aβ1-42 peptide (Example 16); experiment: ELISA, fraction coated at 2.2 µM; assay 2; antibody dilution 1:128 (start 0.5 µg/ml)
# [33] = target: oligomer-enriched preparation of the Aβ1-42 peptide (Example 16); experiment: as above
# Sequence of monomer-enriched preparation of the Aβ1-42 peptide (Example 16) (peptide, as listed by the source): as above
# Sequence of oligomer-enriched preparation of the Aβ1-42 peptide (Example 16) (peptide, as listed by the source): as above
substance,measurement,setting,value
6E10 control antibody,O.D. (405 nm),[1],4 O.D.
same,O.D. (405 nm),[2],3.83 O.D.
same,O.D. (405 nm),[3],1.18 O.D.
same,O.D. (405 nm),[4],1.27 O.D.
same,O.D. (405 nm),[5],2.55 O.D.
same,O.D. (405 nm),[6],2.68 O.D.
same,O.D. (405 nm),[7],1.54 O.D.
same,O.D. (405 nm),[8],1.4 O.D.
same,O.D. (405 nm),[9],3.77 O.D.
same,O.D. (405 nm),[10],3.67 O.D.
same,O.D. (405 nm),[11],0.94 O.D.
same,O.D. (405 nm),[12],0.88 O.D.
same,"O.D. (405 nm), mean of 3 assays",[13],3.83 O.D.
same,"O.D. (405 nm), mean of 3 assays",[14],3.64 O.D.
same,"O.D. (405 nm), mean of 3 assays",[15],3.59 O.D.
same,"O.D. (405 nm), mean of 3 assays",[16],3.59 O.D.
same,"O.D. (405 nm), mean of 3 assays",[17],3.27 O.D.
same,"O.D. (405 nm), mean of 3 assays",[18],3.37 O.D.
same,O.D. (405 nm),[19],2.23 O.D.
same,O.D. (405 nm),[20],2.07 O.D.
same,O.D. (405 nm),[21],0.95 O.D.
same,"O.D. (405 nm), mean of 3 assays",[22],0.75 O.D.
same,"O.D. (405 nm), mean of 3 assays",[23],0.63 O.D.
same,O.D. (405 nm),[24],3.48 O.D.
same,O.D. (405 nm),[25],3.55 O.D.
same,O.D. (405 nm),[26],0.116 O.D.
same,O.D. (405 nm),[27],0.133 O.D.
same,O.D. (405 nm),[28],0.544 O.D.
same,O.D. (405 nm),[29],0.574 O.D.
same,O.D. (405 nm),[30],0.64 O.D.
same,O.D. (405 nm),[31],0.62 O.D.
same,O.D. (405 nm),[32],0.75 O.D.
same,O.D. (405 nm),[33],0.61 O.D.
